Reference: US20240166738A1 (Alector, published 2024)
Changes are numbered by the printed parent chain.

Biological target: human TMEM106B (human, UniProt Q9NUM4 2-274)
Assay: cell-based or functional assay
Note: test concentration or dose not given here.

B1: TM-25 (antibody, V domains shown)
VH: EVQLVESGGDLVKPGGSLRLSCAASGFTFSGYGMSWIRQTPDKRLEWVATISSGGRYTVYPDSVKGRFTMSRDNVKNTLYLQMSSLKSEDTALYYCARDNFYSYAMDYWGLGTSVTVSA
VL: DIVMTQAAFSNPVTLGTSASISCRSSKSLLHSNGITYLFWYLQKPGQSPQLLIYQMSNLASGVPDRFSSSGSGTDFTLRISRVEAEDVGVYYCAQNLELWTFGGGTKLEIK
- % Protection from CPE: 106%

B2: TM-61 (antibody, V domains shown)
VH: QVQLQQSGAELAKPGASVKLSCKASGYTFTNYWMNWVKQRPGQGLEWIGYINPSSDYTKYNQNFKDKATLTADKSSSTAYMQLNSLTYEDSAVYYCTRWGGSRSYWYFDVWGAGTTVTVSS
VL: DIVMTQSPSSLSASAGEKVTMSCKSSQSLLNSGNQKNYLAWYQQKPGQSPKLLIYGASTRESGVPDRFTGSGSGTDFTLTISSVQAEDLAVYYCQNDSNYPFTFGGGTKLEMK
- % Protection from CPE: 94.1%

B3: TM-45 (antibody, V domains shown)
VH: B2 VH with N35H, Q39K, D56G, N63K, S77N, N84S, W99E, R103I, Y105D, A113T
VL: DIVMTQAAPSLPVTPGESVSISCRSSKSLLHSNGNTYLYWFLQRPGQSPQLLIYRMSNLASGVPDRFSGSGSGTAFTLRISRVEAEDVGVYYCMQHLEYPYTFGGGTKLEIK
- % Protection from CPE: 32.6%

B4: TM-86 (antibody, V domains shown)
VH: EVQLQQSGPVLVKPGASVKMSCKASGYTFTDYYIHWVKQSHGRSLEWIGVISPYNDNTNYNQKFKGKATLTVDKSSSTAYMELNSLTSEDSAVYYCVRTYYSNYFDYWGQGTTLTVSS
VL: B2 VL with A13V, Y42H, K45R, S49P, D76E, S98H, N99S, F102L, G106A, M112L
- % Protection from CPE: 90.5%

B5: TM-59 (antibody, V domains shown)
VH: QVQLQQSGAELAKPGASVKLSCKASGYTFISYWMHWVKQRPGQGLEWIGYVNPSSGYTKNNQKFKDKATLTADKSSSTAYMQLSSLTYEDSAVYYCAREGGSISDWYFDVWGTGTTVTVSS
VL: B3 VL with L11V, L38S
- % Protection from CPE: 92.3%

B6: TM-37 (antibody, V domains shown)
VH: B5 VH with I30T, A68V
VL: B3 VL with L11V, L38S
- % Protection from CPE: 90.2%

B7: TM-10 (antibody, V domains shown)
VH: QVQLQQSGAELVKPGASVKISCKGSGYAFSSYWMNWVKQRPGKGLEWIGQIYPGDGDTNYNGKFKGKATLTADKSSTTAYIHLSSLTSEDSAVYFCARWGHYDEAMDDWGQGTSVTVSS
VL: DVVMTQTPLSLPVSLGDQASISCRSSQSLVHSNGKTYLHWYVQKPGQSPKLLIYKISNRFSGVPDRFSGSGSGTDFTLKISRVEAEDLGVYFCSQITHVPWTFGGGTKLESK
- % Protection from CPE: 93.3%

B8: TM-11 (antibody, V domains shown)
VH: QVQLKQSGPGQVQPSQSLSITCTVSGFSLSDYGVHWVRQSPGKGLEWLGVIWNNGNTDYNAAFISRLSINKDNSKSQVFFKMTSLQADDTAIYYCVRSLRPLHFDYWGQGTTVTVSS
VL: DIVMTQSPSSLTMSVGQKVTMHCKSSQSLLNSNNLQNYLAWYQQKPGQSPTLLVYFASIRESGVPDRFIGSGSGTDFTLTISSVQAEDLADYFCQQHYNTPFTFGSGTKLEIR
- % Protection from CPE: 93.9%

B9: TM-24 (antibody, V domains shown)
VH: B8 VH
VL: B8 VL with H22N, L35Q, T51K, S82N, N99S
- % Protection from CPE: 8.4%

B10: TM-72 (antibody, V domains shown)
VH: QVQLQQPGAELVKPGTSVKLSCKASGSTFTNYWMHWVMQRPGQGLEWIGNIDPSDSDTHYNQKFKDRAKLTVDKSSSTAYMQLSGLTSEDSAVYYCARSRGGYYDYGEAMDYWGQGTSVTVSS
VL: B3 VL with L11V, S32T, Y39F, L42I, Q50H, M56K, Y101F, G105S
- % Protection from CPE: 92.7%

B11: TM-64 (antibody, V domains shown)
VH: QVQLQQPGAELVKPGASVKLSCKASGYTFTSYWMHWVKQRPGHGLEWIGNIDPSDSDTHYNQNFRGKATLTVDKFSTTAYMHLSSLTSEDSAVYYCARSRGGTYDYGEAMDYWGQGTSVTVSS
VL: B3 VL with L11V, S32T, Y39F, Q47R, Y101F, G105S
- % Protection from CPE: 89.3%

B12: TM-78 (antibody, V domains shown)
VH: QVQLQQPGAELVKPGASVKLSCKASGYTFTNHWMHWVRQRPGQGLEWIGNIDPSDSDTHYNHKFKDKATLIVDKSSSTAYLQLSSLTSEDSAVFYCARSRGGYYDYGEAMDYWGQGTSVTVSS
VL: B3 VL with A8T, L11I, S32V, Y39F, Y101F, G105S
- % Protection from CPE: 91.1%

B13: TM-63 (antibody, V domains shown)
VH: QVQLQQPGAELVKFGASVKLSCKASGYTFTSFWMHWVKQRPGQGLEWIGNIDPSDSETHYSQKFKDKATLTVDRSSNTAYIQLSSLTSEDSAVYYCARSSNWDNFDYWGQGTTVTVSS
VL: DIVMTQASPSVSVTPGESVSISCRSSQSLLHVNGNTYLYWFLQRPGRSPRLLIYRMSNLASGVPDRFSGSGSGTAFTLRISRVEAEDVGVYYCMQHLQYPFSFGSGTKLEMK
- % Protection from CPE: 89.3%

B14: TM-21 (antibody, V domains shown)
VH: EVQLVESGGGLVKPGGSLKLSCAASGFTFSNYAMSWVRETPEKRLEWVAFISDGGGYIYYADNVKDRFTISRDNAKNNLYLQMRHLKSEDTAMYYCARDGGTGFTYWGQGTLVTVSV
VL: DIVMTQAAFSNPVTLGTSASISCRSSKSLLHSNGITYLFWYLQKPGQSPQLLIYQMSNLASGVPDRFSSSGSGTDFTLRISRVEAEDVGVYYCVQNLELPYTFGGGTKLEIK
- % Protection from CPE: 93.7%

B15: TM-29 (antibody, V domains shown)
VH: QVQLRQSGAELVRPGASVKLSCKASGYTFTDYYINWVKQRPGQGLEWIARIYPGSGYTYYNEKFKGKATLTAEGSSNTAYMQLSSLTSEDSAVYFCANHYTNPFAYWGQGTLVTVSA
VL: B14 VL with S32Y, F39Y, V94A
- % Protection from CPE: 92.6%

B16: TM-35 (antibody, V domains shown)
VH: QVQLQQSGPELVRPGTSVKISCKAPGYTFTRHWMQWVRQRPGQGLEWIGEILPGSNNIYYNEKVKGKATLTVDTSSSTSYMQLSSLTSEDSAVYFCARSLYDYDGVFAYWGQGTLVTVSA
VL: DVLMTQIPLSLPVSLGDQASISCRSSQSIVHRNGNTYLEWYLQKPGQSPKLLIYKVSNRFSGVPDRFSGSGSGTDFTLKISRVEAEDLGVYYCFQGSHVPYTFGGGTKLEIK
- % Protection from CPE: 90.4%

B17: TM-60 (antibody, V domains shown)
VH: QVQLQQSGPELVKPGASVKLSCKASGYTFTSYDINWVKQRPGQGLEWIGWIYPRDGNTQYIEKLKGKATLTVDTSSSTAYMELHSLTSEDSAVYFCARWIFYAMDYWGQGTSVTVSS
VL: B16 VL with I7T, R32G, V99L
- % Protection from CPE: 94.2%

B18: TM-32 (antibody, V domains shown)
VH: EVQLQQSGAELVRPGASVRLSCIASGFNIKDYYMYWVKQRPEQGLEWIGRIDPEDGDTEYVPKFQGKATMTADTSSNTAYLQLSSLTSEDIGVYYCTTRTWDLYYAVDNWGQGTSVTVSS
VL: B16 VL with I7T, S28N, R32S, Y54D, V90I, Y101F, G105S
- % Protection from CPE: 105%

B19: TM-48 (antibody, V domains shown)
VH: B17 VH
VL: B16 VL with I7T, D17N, R32G, V99L
- % Protection from CPE: 89.3%
